Measurements published in FireProtDB (doi:10.1016/j.bpc.2020.106337).

B1: non-specific serine/threonine protein kinase, O49003 (parent)
chain: MASKGAGGGGGGHEEPQRPKQQLPRDSRGSLEVFNPSSSSAAVEPPSAFRPAARSASPFIEEATGGIEDVGKATQRAAEWGLVLQTNEQTGRPQGVSARSSGGGGSARSSSDDKAVAGAIPRVSEELRAALSAFQQTFVVSDASRPGHPIMYASAGFFNMTGYTSKEVVGRNCRFLQGSGTDPAEIAKIRQALANGSNYCGRVLNYKKDGTAFWNLLTIAPIKDEEGRVLKFIGMQVEVSKYTEGNKDTVVRPNGLPESLIKYDARQKDQARSSVSELLLAIKNPRSLSESTNSTFKRKSQESVGALTGDRPGKRSSESGSRRNSKSGARTSLQKISEVPERGSKSRKSGLYSLMSLLGMGPGNIEKDMLKPRDEDPLLDSDDERPESFDDELRRKEMRRGIDLATTLERIEKNFVITDPRLPDNPIIFASDSFLQLTEYSREEILGRNCRFLQGPETDRATVRKIRDAIDNQTEVTVQLINYTKSGKKFWNLFHLQPMRDQKGDVQYFIGVQLDGTEHVRDAAEREGVMLIKKTAENIDEAAKELPDANLRPEDLWANHSKVVLPKPHMKDSASWRAIQKVLEGGENIDLKHFRPVKPLGSGDTGSVHLVELLNTGEYFAMKAMDKNVMLNRNKVHRANAEREILDMLDHPFLPTLYASFQTKTHICLITDYYPGGELFLLLDRQPLKVLREDAVRFYAAEVVIALEYLHCQGIIYRDLKPENILLHRDGHISLTDFDLSCLTSCRPQVFLPEEANKKSRRKSRSSPIFFAEPMRASNSFVGTEEYIAPEIITGAGHTSAVDWWALGILLYEMLYGYTPFRGKTRQRTFANILHKDIRFPASISVSLPARQLIYRLLHRDPSNRLGSYEGSNEIKEHPFFRGINWALVRGTAPPKLDAPLFPDDTDKGMGDAAAADTHTDMF

Variants of: B1
Conditions: Avena sativa; pH 4; Thermal; CD; Sodium acetate; transition: 2; reversible: partially reversible; structure 2V0U; whole UniProt chain shown

| Variant | Tm [°C] | change of melting temperature, mutant - wild type (higher = more stable) [°C] |
| --- | --- | --- |
| C450A | 51 | 0.7 |

Same assay, conditions: Avena sativa; pH 4; Thermal; DSC; Sodium acetate; transition: 2; reversible: partially reversible; structure 2V0U; whole UniProt chain shown

| Variant | Tm [°C] | change of melting temperature, mutant - wild type (higher = more stable) [°C] |
| --- | --- | --- |
| C450A | 50.7 | 2.7 |

Same assay, conditions: Avena sativa; pH 4; Thermal; fluorescence; Sodium acetate; transition: 2; reversible: partially reversible; structure 2V0U; whole UniProt chain shown

| Variant | Tm [°C] | change of melting temperature, mutant - wild type (higher = more stable) [°C] |
| --- | --- | --- |
| C450A | 49.9 | 2.8 |

Same assay, conditions: Avena sativa; pH 7; 20 °C; Urea; fluorescence; sodium phosphate; transition: 2; reversible: no; structure 2V0U; whole UniProt chain shown

| Variant | ddG of mutation (higher = less stable) [kcal/mol] | denaturant m value [kcal/mol/M] | denaturant midpoint (higher = more stable) [M] | unfolding free energy [kcal/mol] |
| --- | --- | --- | --- | --- |
| C450A | -0.48 | 1.67 | 3.39 | 6.07 |

Same assay, conditions: Avena sativa; pH 7; Thermal; CD; sodium phosphate; transition: 2; reversible: partially reversible; structure 2V0U; whole UniProt chain shown

| Variant | Tm [°C] | change of melting temperature, mutant - wild type (higher = more stable) [°C] |
| --- | --- | --- |
| C450A | 64.4 | 3.3 |

Same assay, conditions: Avena sativa; pH 7; Thermal; DSC; sodium phosphate; transition: 2; reversible: partially reversible; structure 2V0U; whole UniProt chain shown

| Variant | Tm [°C] | change of melting temperature, mutant - wild type (higher = more stable) [°C] |
| --- | --- | --- |
| C450A | 65 | 3.1 |

Same assay, conditions: Avena sativa; pH 7; Thermal; fluorescence; sodium phosphate; transition: 2; reversible: partially reversible; structure 2V0U; whole UniProt chain shown

| Variant | Tm [°C] | change of melting temperature, mutant - wild type (higher = more stable) [°C] |
| --- | --- | --- |
| C450A | 63.6 | 3.8 |

Same assay, conditions: Avena sativa; pH 8; Thermal; CD; sodium phosphate; transition: 2; reversible: partially reversible; structure 2V0U; whole UniProt chain shown

| Variant | Tm [°C] | change of melting temperature, mutant - wild type (higher = more stable) [°C] |
| --- | --- | --- |
| C450A | 64.4 | 2.6 |

Same assay, conditions: Avena sativa; pH 8; Thermal; DSC; sodium phosphate; transition: 2; reversible: partially reversible; structure 2V0U; whole UniProt chain shown

| Variant | Tm [°C] | change of melting temperature, mutant - wild type (higher = more stable) [°C] |
| --- | --- | --- |
| C450A | 63.8 | 3.7 |

Same assay, conditions: Avena sativa; pH 8; Thermal; fluorescence; sodium phosphate; transition: 2; reversible: partially reversible; structure 2V0U; whole UniProt chain shown

| Variant | Tm [°C] | change of melting temperature, mutant - wild type (higher = more stable) [°C] |
| --- | --- | --- |
| C450A | 63.5 | 3.4 |

Same assay, conditions: Avena sativa; pH 9; Thermal; DSC; glycine; transition: 2; reversible: partially reversible; structure 2V0U; whole UniProt chain shown

| Variant | Tm [°C] | change of melting temperature, mutant - wild type (higher = more stable) [°C] |
| --- | --- | --- |
| C450A | 66 | 4.2 |

Same assay, conditions: Avena sativa; pH 9; Thermal; fluorescence; glycine; transition: 2; reversible: partially reversible; structure 2V0U; whole UniProt chain shown

| Variant | Tm [°C] | change of melting temperature, mutant - wild type (higher = more stable) [°C] |
| --- | --- | --- |
| C450A | 63.5 | 2.6 |
